Test results from patent US20180291082A1 (IMMATICS BIOTECHNOLOGIES, published 2018).

Key:
[1] = target: T1, HLA-B*44:02 (human); experiment: UV-ligand exchange, anti-b2m ELISA; exchange yield grade (+ >10%, ++ >20%, +++ >50, ++++ >75%)
T1 construct: Peptide-receptive MHC monomer made by UV cleavage of a UV-sensitive peptide
Text: (§1) Candidate peptides for T cell based therapies according to the present invention were further tested for their MHC binding capacity (affinity). The individual peptide-MHC complexes were produced by UV-ligand exchange, where a UV-sensitive peptide is cleaved upon UV-irradiation, and exchanged with the peptide of interest as analyzed. Only peptide candidates that can effectively bind and stabilize the peptide-receptive MHC molecules prevent dissociation of the MHC complexes. To determine the yield of the exchange reaction, an ELISA was performed based on the detection of the light chain (β2m) of stabilized MHC complexes. The assay was performed as generally described in Rodenko et al. (Rodenko et al., 2006).
(§2) 96 well MAXISorp plates (NUNC) were coated over night with 2 ug/ml streptavidin in PBS at room temperature, washed 4× and blocked for 1 h at 37° C. in 2% BSA containing blocking buffer. Refolded HLA-A*02:01/MLA-001 monomers served as standards, covering the range of 15-500 ng/ml. Peptide-MHC monomers of the UV-exchange reaction were diluted 100-fold in blocking buffer. Samples were incubated for 1 h at 37° C., washed four times, incubated with 2 ug/ml HRP conjugated anti-β2m for 1 h at 37° C., washed again and detected with TMB solution that is stopped with […]. Absorption was measured at 450 nm. Candidate peptides that show a high exchange yield (preferably higher than 50%, most preferred higher than 75%) are generally preferred for a generation and production of antibodies or fragments thereof, and/or T cell receptors or fragments thereof, as they show sufficient avidity to the MHC molecules and prevent dissociation of the MHC complexes.

[2] = target: T2, HLA-A*03:01 (human); experiment: as above
T2 construct: Peptide-receptive MHC monomer made by UV cleavage of a UV-sensitive peptide
Text: as §1, §2

Binder | peptide exchange yield [1] | peptide exchange yield [2]
FELPTGAGL | 20 to 50% | –
GEATLQRIY | 10 to 20% | –
SENPETITY | 50 to 75% | –
AEQTGTWKL | 20 to 50% | –
IEALLESSL | 20 to 50% | –
GEHTSKATL | 20 to 50% | –
YEVDTVLRY | 20 to 50% | –
KEITGFLLI | 50 to 75% | –
AEKQTPDGRKY | 20 to 50% | –
KMMADYGIRK | – | 50 to 75%
IIAKKYFFK | – | 20 to 50%
SEAFPSRAL | 50 to 75% | –
AEKDGKLTDY | 20 to 50% | –
LQEEKVPAIY | 10 to 20% | –
RMPPPLPTR | – | 20 to 50%
TEKEMIQKL | 20 to 50% | –
EEKLIIQDF | 20 to 50% | –
HELENHSMY | 20 to 50% | –
LEMPHYSTF | > 75% | –
GVIIAKKYFFK | – | 20 to 50%
TEVLDSHIHAY | 20 to 50% | –
ALLGVIIAK | – | 20 to 50%

Binder | peptide exchange yield [1] | peptide exchange yield [2]
EEAPLVTKAF | 20 to 50% | –
KIKEHVRSK | – | 20 to 50%
ARLTPIPFGL | 10 to 20% | –
RLSPNDQYK | – | 20 to 50%
KESDGFHRF | 50 to 75% | –
EEAKQVLFL | 20 to 50% | –
DEYLIPQQGF | 50 to 75% | –
TEHTQSQAAW | 50 to 75% | –
AEAVLKTLQEL | 50 to 75% | –
STQDTLLIK | – | 20 to 50%
EELLHGQLF | 20 to 50% | –
SESAVFHGF | 50 to 75% | –
KENFAGEATL | 20 to 50% | –
NEISTFHNL | 50 to 75% | –
DESEKTTKSF | 20 to 50% | –
AEQPDGLIL | 20 to 50% | –
EEESLLTSF | 50 to 75% | –
SEPINIIDAL | 20 to 50% | –
AEETCAPSV | 20 to 50% | –
KLYPTYSTK | – | 20 to 50%
GSAALYLLR | – | 20 to 50%
FSLAGALNAGFK | – | 20 to 50%

Binder | peptide exchange yield [1] | peptide exchange yield [2]
TEATMTFKY | 50 to 75% | –
EEFETLKEF | 20 to 50% | –
AEIHTAEI | 20 to 50% | –
KIIAPLVTR | – | 20 to 50%
AENAEYLRV | 20 to 50% | –
TTMDQKSLW | 10 to 20% | –
REAEPIPKM | 20 to 50% | –
MELLLVNKL | 50 to 75% | –
KESQLPTVM | 20 to 50% | –
GTESGTILK | – | 20 to 50%
QEVLLQTFL | > 75% | –
AEHDAVRNAL | 50 to 75% | –
SEVPVARVW | > 75% | –
ATMQSKLIQK | – | 50 to 75%
AEERAEAKKKF | 20 to 50% | –
KEFNLQNMGL | 50 to 75% | –
AENLFRAFL | 50 to 75% | –
NEINEKIAPSF | 50 to 75% | –
EEVDVPIKLY | 20 to 50% | –
GEELGFASL | 20 to 50% | –
SENIVIQVY | 20 to 50% | –
